For the data set, the system named is ATP. Briefly: switch fluorescence ratio, 500 uM ATP over buffer (Cy3 cluster intensity, sum of 5 cycles each) (fold (ratio)); higher = stronger signal-on switching upon ATP binding; sequences stand for … in TCGTCGGCAGCGTCAGATGTGTATAAGAGACAGTTTTTTTTTTTTTTTTTTTTTTTTT…TC. The note with it: aptamer strand: ATP DNA aptamer (quencher-CACCTGGGGGAGTATTGCGGAGGAAGG + anchor), 100 nM annealed; ATP concentration: 500 uM. The procedure, abridged: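 Cy3-labelled switching-strand clusters on a modified Illumina MiSeq flow-cell were annealed to 100 nM quencher-labelled ATP aptamer and imaged first in selection buffer, then after 15 min with 500 uM ATP at 22 °C. NaOH stripping and re-annealing separated each of five buffer/ATP cycles, and clusters outside 100-1000 RFU were excluded. The fluorescence ratio sums target-cycle Cy3 intensity over buffer-cycle Cy3 intensity per cluster and averages it per switch-domain sequence.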

± gives the standard deviation of the averaged measurements.
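Also: ATP exposure 15 min at 22 °C before imaging.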

Turning to AGAAGGGTGG, the switch fluorescence ratio came to 0.992 ± 0.043.
The result for GGGTTAGGGA reads 0.996 ± 0.025.
On to GGGTGTAGCG, for which the switch fluorescence ratio came out at 0.965 ± 0.026.
The result for GGGGTGATCA reads 1.05 ± 0.064; that for TGGATGCTTG, 1.01 ± 0.045.
Then ACAGGTTAGA, with 1.05 ± 0.014.
On to GGGATTTGG, for which the switch fluorescence ratio came to 0.985 ± 0.015.
Consider CTATGTGTCT, for which the switch fluorescence ratio came out at 0.97 ± 0.043.
Then GCCACGGGGA, with 1.0073 ± 0.00078; and GGCTGGGGGA, with 1.01 ± 0.024; and ATAACGGAGT, with 0.9902 ± 0.0087.
Then AGGTCGGAAT, with 1.04 ± 0.028; and TGATGGTGC, with 1.05 ± 0.066; and TTAGGAACAC, with 1.07 ± 0.12.
The result for TCCAGGACGA reads 1.05 ± 0.023; that for AAGTGGGCGT, 1.01 ± 0.046.
As for TGCTGCTTTT, the switch fluorescence ratio was 0.943 ± 0.036.
For GTTTGGGGAG, the switch fluorescence ratio was 0.977 ± 0.018.
In the case of TGGTGACTAG, the switch fluorescence ratio stood at 0.967 ± 0.024.
Then TAGGGTTTAA, with 1.01 ± 0.021; and TTTGTATTTA, with 1.03 ± 0.041; and AAGGAGTTGG, with 0.989 ± 0.025.
On to GGGCAATCGG, for which the switch fluorescence ratio was determined as 1.75 ± 0.97.
Then TTGGGATTAA, with 1.05 ± 0.053; and GGGGGGAGAC, with 1.07 ± 0.19.
Consider TCAGGGTTGA, for which the switch fluorescence ratio was determined as 1.03 ± 0.044.
Then GGCTACTTTA, with 1.07 ± 0.039; and GAACGATGTT, with 0.9787 ± 0.0032.
With CATTGGGGAG, the switch fluorescence ratio was determined as 1.01 ± 0.026.
The result for GAGGGGGATC reads 1.02 ± 0.035.
The result for TCATGGGGTC reads 0.975 ± 0.022.
The result for GAGTAGGCTA reads 0.973 ± 0.035; that for TTATTTCAAC, 0.9728 ± 0.0052; that for AACTGTGGAT, 0.999 ± 0.034.
For the sequence GATAGTTCGC, the switch fluorescence ratio came to 1.01 ± 0.015.
Consider CGGGGAGTAT, for which the switch fluorescence ratio was 0.975 ± 0.015.
Then TTCAGTGGTG, with 0.965 ± 0.053; and AGGCCCGGGC, with 0.958 ± 0.023; and GGGCTCATTT, with 1.01 ± 0.021.
As to AGGGGATTTT, the switch fluorescence ratio is 1.04 ± 0.056.
The result for TGGGGGTTGA reads 1.01 ± 0.028; that for CGTTGCGGGA, 1.01 ± 0.045.
For the sequence CGCTTGAAAT, the switch fluorescence ratio is 1.05 ± 0.018.
As to CGGTTATCCT, the switch fluorescence ratio was determined as 1.04 ± 0.032.
On to CGATAGGGGG, for which the switch fluorescence ratio worked out at 1.01 ± 0.022.
Regarding AAGCCTTGGG, the switch fluorescence ratio turned out to be 1.02 ± 0.022.
For the sequence GAACTCGGCT, the switch fluorescence ratio turned out to be 0.959 ± 0.12.
Take TTGGAAAAT: the switch fluorescence ratio was 0.967 ± 0.013.
Regarding GGTTGTTTCG, the switch fluorescence ratio turned out to be 0.969 ± 0.038.
As for TTCTCAATGT, the switch fluorescence ratio is 1.08 ± 0.14.
Take TCACAGCCTG: the switch fluorescence ratio turned out to be 0.9973 ± 0.0019.
Consider TTTTTAGGTG, for which the switch fluorescence ratio turned out to be 1.27 ± 0.2.
TTGGTGTCAG: the switch fluorescence ratio was determined as 1.02 ± 0.018.
The result for ATGTGTATTG reads 0.985 ± 0.025; that for GTTCGTACGT, 0.962 ± 0.082.
The result for TAAGGCGGAG reads 0.9951 ± 0.0032; that for TTCTTTAGGG, 1.16 ± 0.26.
The result for GGTATTATTT reads 0.995 ± 0.023.
Regarding GCATAGTGGT, the switch fluorescence ratio was determined as 1.008 ± 0.01.
The result for ATAGGCACGG reads 1 ± 0.04.
Then TCAAAGTGTA, with 0.968 ± 0.064; and ATTTTTAGTT, with 0.991 ± 0.037.
Then AGTTTTTTTG, with 0.99 ± 0.017; and ATGTATAGCC, with 0.995 ± 0.036; and TGCAGATCGG, with 0.9927 ± 0.0028.
Take CTCGGGAGTA: the switch fluorescence ratio stood at 1 ± 0.042.
Then CCTATGCAGT, with 5.33 ± 0.3.

The values above are taken from the supplement of paper PMC10126150.
